# Measured values reported in patent US20230257436A1 (published 2023).
# T1: human prosaposin (PSAP) secreted from ARPE-19 cells stably transfected with human PSAP cDNA (human) (UniProt P07602)
# T1 sequence: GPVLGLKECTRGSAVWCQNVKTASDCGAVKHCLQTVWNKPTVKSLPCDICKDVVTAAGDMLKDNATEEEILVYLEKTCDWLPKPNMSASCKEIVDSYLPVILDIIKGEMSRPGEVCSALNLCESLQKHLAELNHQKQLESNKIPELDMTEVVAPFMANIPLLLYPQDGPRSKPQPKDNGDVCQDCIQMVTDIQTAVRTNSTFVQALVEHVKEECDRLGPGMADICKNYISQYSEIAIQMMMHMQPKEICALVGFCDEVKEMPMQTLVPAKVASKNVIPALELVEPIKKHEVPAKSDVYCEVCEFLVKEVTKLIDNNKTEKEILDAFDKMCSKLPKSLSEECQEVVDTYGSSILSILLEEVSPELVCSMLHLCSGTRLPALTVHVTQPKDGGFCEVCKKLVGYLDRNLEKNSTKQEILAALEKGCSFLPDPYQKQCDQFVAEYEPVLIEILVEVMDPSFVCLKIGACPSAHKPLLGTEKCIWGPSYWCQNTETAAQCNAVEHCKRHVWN
# T2: endogenous human progranulin (PGRN) in human plasma and CSF (human, UniProt P28799 18-593)
# T2 sequence (looked up): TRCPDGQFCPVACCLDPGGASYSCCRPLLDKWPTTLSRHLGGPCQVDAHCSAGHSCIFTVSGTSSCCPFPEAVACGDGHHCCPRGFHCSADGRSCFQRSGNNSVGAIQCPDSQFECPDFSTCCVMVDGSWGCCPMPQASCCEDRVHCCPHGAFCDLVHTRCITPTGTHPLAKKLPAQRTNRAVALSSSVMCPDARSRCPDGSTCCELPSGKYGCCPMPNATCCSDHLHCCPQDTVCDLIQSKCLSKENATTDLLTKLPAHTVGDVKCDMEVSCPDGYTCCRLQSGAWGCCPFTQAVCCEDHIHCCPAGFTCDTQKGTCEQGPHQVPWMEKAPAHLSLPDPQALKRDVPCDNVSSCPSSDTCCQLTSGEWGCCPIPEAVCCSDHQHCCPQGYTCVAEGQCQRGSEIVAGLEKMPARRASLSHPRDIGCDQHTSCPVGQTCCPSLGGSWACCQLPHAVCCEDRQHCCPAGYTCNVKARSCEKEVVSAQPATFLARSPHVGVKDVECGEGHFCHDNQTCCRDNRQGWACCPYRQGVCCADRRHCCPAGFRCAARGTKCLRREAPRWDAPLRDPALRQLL
# T3: commercially available recombinant PGRN (R&D Systems; PGRN-His, cat no. 2420-PG) (UniProt P28799 18-593, limits assumed)
# T3 construct: The assay is titled 'Human PGRN/PSAP Complex Assay'; not shown: His tag
# T3 sequence (looked up): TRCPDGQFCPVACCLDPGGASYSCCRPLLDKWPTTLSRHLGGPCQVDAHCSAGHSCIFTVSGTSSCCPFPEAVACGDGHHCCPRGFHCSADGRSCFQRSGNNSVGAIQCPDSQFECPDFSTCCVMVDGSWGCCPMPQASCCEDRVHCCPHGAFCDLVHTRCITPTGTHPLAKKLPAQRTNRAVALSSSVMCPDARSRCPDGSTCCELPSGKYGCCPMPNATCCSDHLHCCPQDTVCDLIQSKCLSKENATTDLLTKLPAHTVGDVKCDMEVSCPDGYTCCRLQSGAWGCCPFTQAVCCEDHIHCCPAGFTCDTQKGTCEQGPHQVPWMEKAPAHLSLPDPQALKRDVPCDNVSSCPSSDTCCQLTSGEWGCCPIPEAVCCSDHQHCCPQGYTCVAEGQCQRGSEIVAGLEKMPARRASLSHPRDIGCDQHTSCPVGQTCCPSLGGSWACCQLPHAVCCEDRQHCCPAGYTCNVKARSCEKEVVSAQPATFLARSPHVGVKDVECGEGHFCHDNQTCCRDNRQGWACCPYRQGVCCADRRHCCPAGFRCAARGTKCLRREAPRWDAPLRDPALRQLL
# Legend:
# [1] = biological target: T1, human prosaposin (PSAP) secreted from ARPE-19 cells stably transfected with human PSAP cDNA (human); assay: western blot of purified PGRN/PSAP complexes
# [2] = biological target: T2, endogenous human progranulin (PGRN) in …; assay: sandwich ELISA on human plasma and CSF
# [3] = biological target: T3, commercially available recombinant PGRN …; assay: mixing in vitro, western blot
molecule,measurement,setting,value
human progranulin (PGRN) secreted from ARPE-19 cells stably transfected with the human progranulin gene (pT2.CAn.PGRN plasmid) (from UniProt P28799 18-593) (ligand),stoichiometry of PGRN and PSAP in the complex (PGRN:PSAP ratio),[1],1
"endogenous human prosaposin (PSAP), as expressed by non-PSAP-transfected ARPE-19 derived cells and as present in human plasma and CSF (ligand, UniProt P07602 17-524, looked up) GPVLGLKECTRGSAVWCQNVKTASDCGAVKHCLQTVWNKPTVKSLPCDICKDVVTAAGDMLKDNATEEEILVYLEKTCDWLPKPNMSASCKEIVDSYLPVILDIIKGEMSRPGEVCSALNLCESLQKHLAELNHQKQLESNKIPELDMTEVVAPFMANIPLLLYPQDGPRSKPQPKDNGDVCQDCIQMVTDIQTAVRTNSTFVQALVEHVKEECDRLGPGMADICKNYISQYSEIAIQMMMHMQPKEICALVGFCDEVKEMPMQTLVPAKVASKNVIPALELVEPIKKHEVPAKSDVYCEVCEFLVKEVTKLIDNNKTEKEILDAFDKMCSKLPKSLSEECQEVVDTYGSSILSILLEEVSPELVCSMLHLCSGTRLPALTVHVTQPKDGGFCEVCKKLVGYLDRNLEKNSTKQEILAALEKGCSFLPDPYQKQCDQFVAEYEPVLIEILVEVMDPSFVCLKIGACPSAHKPLLGTEKCIWGPSYWCQNTETAAQCNAVEHCKRHVWN",binding result,[2],binds
"human prosaposin (PSAP) secreted from ARPE-19 cells stably transfected with human PSAP cDNA (ligand, The protein was secreted into conditioned medium; no signal peptide limits are stated; also called ARPE-PSAP; PSAP (#7)) GPVLGLKECTRGSAVWCQNVKTASDCGAVKHCLQTVWNKPTVKSLPCDICKDVVTAAGDMLKDNATEEEILVYLEKTCDWLPKPNMSASCKEIVDSYLPVILDIIKGEMSRPGEVCSALNLCESLQKHLAELNHQKQLESNKIPELDMTEVVAPFMANIPLLLYPQDGPRSKPQPKDNGDVCQDCIQMVTDIQTAVRTNSTFVQALVEHVKEECDRLGPGMADICKNYISQYSEIAIQMMMHMQPKEICALVGFCDEVKEMPMQTLVPAKVASKNVIPALELVEPIKKHEVPAKSDVYCEVCEFLVKEVTKLIDNNKTEKEILDAFDKMCSKLPKSLSEECQEVVDTYGSSILSILLEEVSPELVCSMLHLCSGTRLPALTVHVTQPKDGGFCEVCKKLVGYLDRNLEKNSTKQEILAALEKGCSFLPDPYQKQCDQFVAEYEPVLIEILVEVMDPSFVCLKIGACPSAHKPLLGTEKCIWGPSYWCQNTETAAQCNAVEHCKRHVWN",binding result,[3],binds
